# Laboratory results taken from the supplement of paper PMC9112550, “Optimization of the antimicrobial peptide Bac7 by deep mutational scanning” (BMC Biology, 2022).
# Test system: Escherichia coli TOP10
# Assay: shrunken log2 fold change of peptide-encoding DNA abundance (4.5 h post-induction vs induction); higher = less antimicrobial activity (less host growth inhibition)
# Details: time post-induction: 4.5 h; library: site-saturation at positions 5, 18, 19, 20
# 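Also: peptides expressed intracellularly from a pBAD plasmid library in pooled LB shake-flask culture, induced with 0.3% L-arabinose, DNA abundance read by NGS, three biological replicates, DESeq2 with apeglm shrinkage.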
row,Sequence,shrunken log2 fold change
1,RRIRGRPPRLPRPRPRPAKVPRP,0.431
2,RRIRRRPPRLPRPRPRPHTEPRP,-0.0233
3,RRIRGRPPRLPRPRPRPWKEPRP,0.275
4,RRIRFRPPRLPRPRPRPGEWPRP,-0.0225
5,RRIRRRPPRLPRPRPRPANIPRP,0.256
6,RRIRERPPRLPRPRPRPVCEPRP,0.162
7,RRIRCRPPRLPRPRPRPDTEPRP,-0.0455
8,RRIRFRPPRLPRPRPRPWQNPRP,-0.00226
9,RRIRMRPPRLPRPRPRPKYGPRP,0.0382
10,RRIRNRPPRLPRPRPRPCPIPRP,-0.223
11,RRIRERPPRLPRPRPRPFDEPRP,-0.433
12,RRIRIRPPRLPRPRPRPDKIPRP,-0.0602
13,RRIRERPPRLPRPRPRPGSWPRP,2.45
14,RRIRVRPPRLPRPRPRPYMKPRP,-1.04
15,RRIRERPPRLPRPRPRPLLQPRP,-0.0771
16,RRIRTRPPRLPRPRPRPRIRPRP,0.0303
17,RRIRYRPPRLPRPRPRPNRAPRP,-0.0548
18,RRIRYRPPRLPRPRPRPECEPRP,-0.185
19,RRIRVRPPRLPRPRPRPARVPRP,0.263
20,RRIRFRPPRLPRPRPRPADKPRP,0.0852

row,Sequence,shrunken log2 fold change
1,RRIRKRPPRLPRPRPRPMWEPRP,0.214
2,RRIRPRPPRLPRPRPRPIQCPRP,0.0062
3,RRIRVRPPRLPRPRPRPEFGPRP,0.177
4,RRIRVRPPRLPRPRPRPLQSPRP,0.12
5,RRIRTRPPRLPRPRPRPGMNPRP,-0.15
6,RRIRQRPPRLPRPRPRPQGVPRP,0.0036
7,RRIRDRPPRLPRPRPRPSEVPRP,0.561
8,RRIRSRPPRLPRPRPRPPPMPRP,0.817
9,RRIRWRPPRLPRPRPRPGLFPRP,2.38
10,RRIRTRPPRLPRPRPRPNACPRP,-0.0597
11,RRIRFRPPRLPRPRPRPAEDPRP,0.0423
12,RRIRDRPPRLPRPRPRPYYMPRP,-0.399
13,RRIRSRPPRLPRPRPRPATEPRP,0.121
14,RRIRDRPPRLPRPRPRPYMTPRP,-0.0206
15,RRIRTRPPRLPRPRPRPNMAPRP,-0.155
16,RRIRERPPRLPRPRPRPMLPPRP,-0.397
17,RRIRERPPRLPRPRPRPHVTPRP,-0.228
18,RRIRGRPPRLPRPRPRPMINPRP,0.574
19,RRIRGRPPRLPRPRPRPKYRPRP,0.000233
20,RRIRYRPPRLPRPRPRPFCSPRP,-0.425

row,Sequence,shrunken log2 fold change
1,RRIRSRPPRLPRPRPRPPPLPRP,0.739
2,RRIRIRPPRLPRPRPRPTWQPRP,0.0597
3,RRIRARPPRLPRPRPRPFHYPRP,-0.371
4,RRIRNRPPRLPRPRPRPFRLPRP,-0.505
5,RRIRPRPPRLPRPRPRPMYHPRP,-0.35
6,RRIRFRPPRLPRPRPRPIIPPRP,-0.677
7,RRIRFRPPRLPRPRPRPEIHPRP,-0.227
8,RRIRPRPPRLPRPRPRPFAVPRP,-0.113
9,RRIRKRPPRLPRPRPRPFAAPRP,0.662
10,RRIRGRPPRLPRPRPRPPYIPRP,-0.271
11,RRIRFRPPRLPRPRPRPRFCPRP,0.00666
12,RRIRKRPPRLPRPRPRPYQRPRP,-0.0062
13,RRIRSRPPRLPRPRPRPFYAPRP,-0.236
14,RRIRRRPPRLPRPRPRPPMYPRP,0.0631
15,RRIRSRPPRLPRPRPRPDHSPRP,-0.096
16,RRIRPRPPRLPRPRPRPDFQPRP,0.262
17,RRIRQRPPRLPRPRPRPPIAPRP,0.104
18,RRIRFRPPRLPRPRPRPGKYPRP,-0.586
19,RRIRQRPPRLPRPRPRPMSKPRP,-0.0682
20,RRIRHRPPRLPRPRPRPEARPRP,0.192
